The subject of one series is PC-3 tumors. The series is described as follows: PC-3 xenograft tumor growth. It counts as in vivo, athymic male nude mice (Balb/c/nu/nu mice). The conditions noted are these: for mean tumor volume after four weeks: docetaxel i.p. 6 then 4 mg/kg twice a week, CN 60 μg/day osmotic mini-pump, control 378±49; for suppression of growth of PC-3 tumors: four weeks treatment. As for the experimental part:
100 μl of PC-3 cell suspension (1×10^6 cells) (ATCC.org, Manassas, Va.) was mixed with an equal volume, 100 μl of Matrigel basement membrane matrix (BD Biosciences, Bedford, Mass.) and injected subcutaneously into the flank region of athymic male nude mice (Balb/c/nu/nu mice) (Charles River Laboratory, Wilmington, Mass.). Four weeks after inoculation, 32 mice with PC-3 tumors were randomized into four groups with 8 mice in each group. The control group was treated with PBS and released from Alzet osmotic mini-pumps for four weeks. The second group was treated with docetaxel injections intraperitoneally at a dose of 6 mg/kg twice a week for two weeks and then switched to 4 mg/kg twice a week for two weeks. The third group was treated with contortrostatin (CN) at a dose of 60 μg/day which was continually released from subcutaneously implanted Alzet osmotic mini-pumps for four weeks. The fourth group was treated with a combination of docetaxel and CN at doses indicated in groups 2 and 3 for four weeks. Tumor volume was measured one a week and are calculated according to the formula: length×width^2×0.52.

Series [1] has as its system MDA-MB-435 breast carcinoma cells. The series is described as follows: inhibition of MDA-MB-435 cell adhesion to immobilized fibronectin (Fn). It counts as cell-based, human. The conditions noted are these: pretreatment 30 min, 0-1000 nM; adhesion 1 hr at 25° C.; MTS. As for the experimental part:
(§1) Pretreated cells were allowed to adhere for 1 hr at 25° C., and after non-adherent cells were washed away, the number of adherent cells for each condition was estimated using the MTS cell viability assay. In the cell invasion assay, an invasion chamber consisting of cell culture inserts that fit into 24-well tissue culture plate has been utilized. The inserts contain an 8 μm-pore size polycarbonate membrane, over which a thin layer of ECMatrix™ was applied. The ECMatrix™ serves as an in vitro reconstituted basement membrane and is a solid gel of ECM proteins prepared from the Engelbreth Holm-Swarm (EHS) mouse tumor. The ECM layer occludes the membranes pores, blocking non-invasive cells to migrate through. The cells were incubated in the presence of various concentrations (10, 100, 1000 nM) of either native CN or Vicrostatin for 30 min at 25° C. and then allowed to migrate in the Boyden chamber for 8 hrs. At the 8 hr time point the cells that invaded through the pores into the lower chamber were measured. The numbers of invaded cells for each condition were approximated by quantitating the retrieved labeled DNA using a fluorescent plate reader. The results were calculated in % invasion, where the untreated control was considered as 100% invasion.

Another series has as its system MDA-MB-435 cells. Description: MDA-MB-435 cell invasion through Matrigel/ECMatrix in modified Boyden chamber. It counts as cell-based, human. To be noted: 10, 100, 1000 nM; 8 hrs in Boyden chamber. The method, then:
as §1

Series [2] deals with MDA-MB-435 breast carcinoma cells. The series is described as follows: inhibition of MDA-MB-435 cell adhesion to immobilized vitronectin (Vn). Type of series: cell-based, human. To be noted: pretreatment 30 min, 0-1000 nM; adhesion 1 hr at 25° C.; MTS. The method, then: as §1
The target in series [3] is T1, GPIIb/IIIa (integrin αIIbβ3) (Homo sapiens, UniProt P05106+P08514).
T1 construct: endogenous in cells
Description: platelet aggregation inhibition assay (ADP induced, platelet-rich plasma). Type of series: cell-based. The method, then: The recombinant CN products were evaluated for biological activity by a platelet aggregation inhibition assay. According to this assay, CN binding to GPIIb/IIIa (integrin αIIbβ3) in an RGD dependent manner inhibits ADP induced platelet aggregation (Trikha, Rote, et al. 1994). In this assay, potential inhibitors are added to fresh platelet-rich plasma, and after minute, ADP is added to a final concentration of 1 μM to induce aggregation. If inhibitor is present, functional aggregation will not occur. The IC50 is defined as the concentration at which 50% of the activity is inhibited, and is used as a measure of the potency of an inhibitor.

Series [4] in a line: liposome encapsulation efficiency (BCA protein assay). Type of series: physicochemical. As for the experimental part: Endotoxin-free VN containing liposomes (referred to as LVN) and endotoxin-free native CN containing liposomes (referred to as LCN) were prepared utilizing a probe sonication previously described (Fujii, Chang et al. 1997). Briefly, the lipids (disteroylphosphatidylcholine, cholesterol and polyethylene glycol derivatized lipid) were dissolved in a chloroform/methanol solution. Thin lipid films were created by pipetting aliquots of the lipid solution into round bottom glass tubes followed by solvent evaporation at 65° C. under a stream of nitrogen gas. The films were placed under vacuum for at least 24 hours to remove residual organic solvent. Liposomes formed following hydration of the lipid films with native CN or VN dissolved in 10 mM sodium phosphate, 9% sucrose, pH 7.2. The mixture was incubated at 65° C. for 5-10 minutes. Hydration was followed by probe sonication until the suspension was translucent. […]
The concentration of liposome entrapped CN/VN was determined by disruption of the liposomes with chloroform/methanol/water (10:40:50) followed by centrifugation at 14,000×g. The supernatant was analyzed for CN/VN concentration using BCA protein assay (Smith et al., Anal. Biochem. 150(1): 76-85 (1985)). The encapsulation efficiency was assessed by BCA protein determination following disruption of the LrCN with a solution of H2O methanol: chloroform.

The results in this text go back to patent US8008256B2, “Combination therapy for treatment of cancer” (priority 2006, dated 2011).

Turning to `CC(=O)O[C@@]12CO[C@@H]1C[C@H](O)[C@@]1(C)C(=O)[C@H](O)C3=C(C)[C@@H](OC(=O)[C@H](O)[C@@H](NC(=O)OC(C)(C)C)c4ccccc4)C[C@@](O)([C@@H](OC(=O)c4ccccc4)[C@H]21)C3(C)C` [docetaxel, reference compound], in the series on PC-3 tumors, the “mean tumor volume after four weeks” value came out at 259±38 mm^3 and the “suppression of growth of PC-3 tumors” value is recorded as “significantly suppressed”.
“rCN: recombinant CN disintegrin domain without the HKGPAT sequence”: the “inhibition of adhesion of MDA-MB-435 cells to immobilized fibronectin (Fn)” value in series [1] was “inactive in the nanomolar range”. In addition, the “inhibition of MDA-MB-435 cell invasion” value in the series with MDA-MB-435 cells is “inactive in the nanomolar range”. In series [2], the “inhibition of adhesion of MDA-MB-435 cells to immobilized vitronectin (Vn)” value was “inactive in the nanomolar range”. In series [3] (even at low μM concentrations), the “inhibition of platelet aggregation” value is on record as “did not inhibit platelet aggregation”.

B1: native CN (protein)
chain: DAPANPCCDAATCKLTTGSQCADGLCCDQCKFMKEGTVCRRARGDDLDDYCNGISAGCPRNPFH
As to B1, the “inhibition of adhesion of MDA-MB-435 cells to immobilized fibronectin (Fn)” value in series [1] is given as “inhibited adhesion”. In series [4], the “protein in the encapsulation solution entrapped within the liposomes” value was 80%. Besides, in the series on PC-3 tumors, the “mean tumor volume after four weeks” value is on record as 195±40 mm^3 and the “suppression of growth of PC-3 tumors” value was “significantly suppressed”. For the same molecule, the “inhibition of adhesion of MDA-MB-435 cells to immobilized vitronectin (Vn)” value in series [2] was “inhibited adhesion”. Also, the “IC50 in the platelet inhibition assay” value in series [3] (ADP 1 μM induced aggregation) is listed as “almost identical”.
